Target: DNMT3A1 1-427 R181A/R183A (human, UniProt Q9Y6K1 1-427, R181A;R183A)
Experiment: EMSA; only marginally affected; EMSA: 15 mM HEPES pH 7.5, 75 mM NaCl, 0.05% Triton X-100, 0.05 mg/mL BSA, 10% glycerol, 1 mM DTT, 0.5 mg/mL salmon sperm DNA (nucleosomes), 2.4 nM tracer, 1 h on ice; full-length complex: 17.5 mM HEPES pH 8, 150 mM NaCl, 1.5 mM MgCl2, 2.5% glycerol, 1 mM DTT, 0.1 mg/mL BSA, on ice
Details: protein: recombinant; tags: His-MBP; label: 5' 6-FAM; blunt

DNMT3A1 1-427 R181A/R183A, sequence (Q9Y6K1 1-427 R181A/R183A): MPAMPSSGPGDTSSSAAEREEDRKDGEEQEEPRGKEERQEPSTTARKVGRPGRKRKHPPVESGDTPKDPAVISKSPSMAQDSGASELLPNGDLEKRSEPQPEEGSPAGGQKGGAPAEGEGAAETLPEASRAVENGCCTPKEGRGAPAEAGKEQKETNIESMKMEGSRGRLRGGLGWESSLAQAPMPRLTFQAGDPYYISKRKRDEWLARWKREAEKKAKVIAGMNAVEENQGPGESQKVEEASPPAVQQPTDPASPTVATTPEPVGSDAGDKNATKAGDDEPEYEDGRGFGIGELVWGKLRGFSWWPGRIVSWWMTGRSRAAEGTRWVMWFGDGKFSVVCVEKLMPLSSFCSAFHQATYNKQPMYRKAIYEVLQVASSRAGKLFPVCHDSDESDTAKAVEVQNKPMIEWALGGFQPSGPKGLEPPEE

B1: free 175 bp Widom601 DNA (dsDNA)
DNA 1: TATACGCGGCCGCCCTGGAGAATCCCGGTGCCGAGGCCGCTCAATTGGTCGTAGACAGCTCTAGCACCGCTTAAACGCACGTACGCGCTGTCCCCCGCGTTTTAACCGCCAAGGGGATTACTCCCTAGTCTCCAGGCACGTGTCAGATATATACATCCTGTGCAATGTGTTCCAT
DNA 2: ATGGAACACATTGCACAGGATGTATATATCTGACACGTGCCTGGAGACTAGGGAGTAATCCCCTTGGCGGTTAAAACGCGGGGGACAGCGCGTACGTGCGTTTAAGCGGTGCTAGAGCTGTCTACGACCAATTGAGCGGCCTCGGCACCGGGATTCTCCAGGGCGGCCGCGTATA
B1: binds.
